The values below come from patent US20060057138A1 (published 2006).

Residue numbers refer to the chain shown, from its start. Where only a bound is given, the exact number is not on record here.

For test [1], the target named is T1, recombinant human Tie1-Fc (Tie1 extracellular domain fused to human Fc) (human, UniProt P35590 25-759).
T1 construct: also called human Tie1-Fc fusion protein; not shown: human Fc
T1 sequence: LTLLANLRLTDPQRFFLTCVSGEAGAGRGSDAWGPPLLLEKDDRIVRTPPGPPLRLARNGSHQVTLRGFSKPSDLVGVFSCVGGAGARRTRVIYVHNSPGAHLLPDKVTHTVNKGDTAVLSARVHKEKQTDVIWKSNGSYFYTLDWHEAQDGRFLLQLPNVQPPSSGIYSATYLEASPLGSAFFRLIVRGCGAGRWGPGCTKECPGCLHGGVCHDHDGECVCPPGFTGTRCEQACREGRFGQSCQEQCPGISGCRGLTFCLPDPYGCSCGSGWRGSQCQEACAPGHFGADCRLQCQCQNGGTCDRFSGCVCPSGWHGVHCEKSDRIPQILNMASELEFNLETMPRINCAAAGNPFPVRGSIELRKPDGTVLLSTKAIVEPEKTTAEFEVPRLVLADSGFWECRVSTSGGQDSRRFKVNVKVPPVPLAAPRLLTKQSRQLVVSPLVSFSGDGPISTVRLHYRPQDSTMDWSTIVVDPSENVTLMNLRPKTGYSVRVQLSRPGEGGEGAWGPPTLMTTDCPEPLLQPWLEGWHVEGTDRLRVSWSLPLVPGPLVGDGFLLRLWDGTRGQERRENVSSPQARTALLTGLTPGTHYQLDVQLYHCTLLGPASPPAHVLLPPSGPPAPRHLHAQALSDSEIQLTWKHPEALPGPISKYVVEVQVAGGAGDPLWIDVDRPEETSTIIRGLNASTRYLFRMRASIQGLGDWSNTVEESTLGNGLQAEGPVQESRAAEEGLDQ
As to the kind of experiment: SPR (BIAcore 3000), CM5 chip; format of this row not stated. The procedure:
(§1) Affinity analysis of the Fab and IgGs was performed using surface plasmon resonance using a BIAcore 3000 instrument. For this analysis both dimeric (Tie1-Fc fusion protein) and monomeric (Tie1-HIS) versions of the extracellular domain of the Tie1 were used. The sensor chips used in these experiments were CM5 (dextran-coated) which allow immobilization of proteins to the chip via standard amine coupling chemistries. The concentration of flowed antibody was determined using a surface plasmon resonance based method. Using a high-density protein A sensor chip, under mass transport limited conditions, the response signal is dependent only on the concentration of the antibody in the sample under test. This approach allows a precise determination of the antibody concentration, a parameter important for accurate determination of the KD.
470 RUs of Tie1 HIS protein were coated on a CM5 sensor chip and 5, 20, 100, and 500 nM of the Fab flowed over the chip at four different flow rates ([…]), rates in which the system is not mass transport limited. Kinetic data was typically determined using a range of analyte concentrations and three different chip coating densities. The data from the lowest coating density that gave a good signal was typically chosen, this was often in a range from 50-100 RUs. Using such low coating densities allowed the sensor curves to be fit using BIAEVALUATION™ 3.0 software to a 1:1 model, often even when using a bivalent analyte (IgG or Tie1-Fc fusion protein). For bivalent analytes, when fit to a 1:1 model was not possible, the curves were fit using a 2:1 model.

The target of test [2] is T1, recombinant human Tie1-Fc (Tie1 …). Kind of test: SPR, Tie1-Fc immobilized on CM5 sensor chip, bivalent anti-Tie1 as analyte. The procedure:
as §1

The target is the same in test [3]. As to the kind of experiment: SPR, Tie1-Fc immobilized on the sensor chip, Fab as analyte. The procedure:
as §1

Test [4] deals with T2, recombinant mouse Tie1-Fc (mouse, UniProt Q06806 23-755).
T2 construct: extracellular domain; also called Mouse Tie 1-Fc antigen; mouse Tie1-Fc fusion protein; not shown: Fc
T2 sequence (looked up): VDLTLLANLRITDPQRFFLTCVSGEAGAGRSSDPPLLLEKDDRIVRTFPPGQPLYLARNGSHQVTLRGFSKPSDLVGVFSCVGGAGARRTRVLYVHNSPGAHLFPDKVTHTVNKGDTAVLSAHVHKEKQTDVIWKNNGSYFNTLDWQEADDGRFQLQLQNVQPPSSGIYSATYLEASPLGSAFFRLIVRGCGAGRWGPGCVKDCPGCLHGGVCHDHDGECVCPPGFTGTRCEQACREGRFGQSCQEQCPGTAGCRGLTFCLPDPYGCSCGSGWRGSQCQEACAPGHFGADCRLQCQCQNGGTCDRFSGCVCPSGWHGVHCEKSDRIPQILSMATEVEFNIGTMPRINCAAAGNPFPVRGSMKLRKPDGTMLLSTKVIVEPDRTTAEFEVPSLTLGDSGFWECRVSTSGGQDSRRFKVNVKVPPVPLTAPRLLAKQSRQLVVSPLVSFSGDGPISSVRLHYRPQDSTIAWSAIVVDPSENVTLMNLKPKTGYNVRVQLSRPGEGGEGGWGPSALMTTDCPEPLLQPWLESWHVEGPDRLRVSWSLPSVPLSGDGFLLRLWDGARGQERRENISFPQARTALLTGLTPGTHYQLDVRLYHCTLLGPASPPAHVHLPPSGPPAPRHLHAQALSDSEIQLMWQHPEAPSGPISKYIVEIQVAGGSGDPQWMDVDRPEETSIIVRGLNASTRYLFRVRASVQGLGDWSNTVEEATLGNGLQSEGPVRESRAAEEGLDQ
Described as above. The procedure: as §1

B1: parental E3 Fab (Fab, V domains shown)
VH: EVQLLESGGGLVQPGGSLRLSCAASGFTFSMYGMVWVRQAPGKGLEWVSVISPSGGNTGYADSVKGRFTISRDNSKNTLYLQVNSLRAEDTAVYYCARAPRGYSYGYYYWGQGTLVTVSS
VL: DIQMTQSPLSLSASVGDRVTITCRASQGIGHYLAWYQQKPGKVPKLLIYTASTLQSGVPSRFSGSGSGTDFTLTINSLQPEDVATYYCQQFNSYPHTFGQGTRLDIK
notes: also called E3 Fab parental; parental Fab E3
With B1, in test [1], the Kd was 5.4 nM, the koff came out at 4.47e-05 s⁻¹ and the kon was determined as 8260 M⁻¹ s⁻¹.

B2: DX-2220 (full length, IgG1, germlined human anti-Tie1 antibody E3b) (antibody, V domains shown)
VH: B1 VH with V83M
VL: DIQMTQSPSSLSASVGDRVTITCRASQGIGHYLAWYQQKPGKVPKLLIYTASTLQSGVPSRFSGSGSGTDFTLTISSLQPEDVATYYCQQFNSYPHTFGQGTRLEIKR
notes: also called E3b-IgG1; germlined E3b IgG1
As to B2, in test [1], the Kd amounted to 5.2 nM, the koff turned out to be 3.67e-05 s⁻¹ and the kon was determined as 7090 M⁻¹ s⁻¹. For the same molecule, in test [2], the Kd was determined as 0.2 nM and the “fold increase in affinity against the anti-Tie1 Fab” value was above 10 fold.

B3: E3b Fab (heavy and light chain germlined E3 Fab) (Fab, V domains shown)
VH: B1 VH with V83M
VL: B1 VL with L9S, N76S, D105E
notes: The germlined heavy variable domain is printed with limits only under DX-2240; also called Fab E3b; germlined (E3b)
For B3, the Kd was around 3 nM in test [3], around 3 nM in test [4] and 4.7 nM in test [1]. Besides, the koff in test [1] was determined as 4.41e-05 s⁻¹. Also, the kon in test [1] was found to be 9300 M⁻¹ s⁻¹.
